Measured values taken from article PMC4558169, “Anchoring of both PKA-RIIα and 14-3-3θ regulates retinoic acid induced 16 mediated phosphorylation of heat shock protein 70” (Oncotarget, 2015).

B1: endogenous 14-3-3θ (natural protein, human (endogenous in HEK293T), UniProt P27348 1-245, looked up)
chain: MEKTELIQKAKLAEQAERYDDMATCMKAVTEQGAELSNEERNLLSVAYKNVVGGRRSAWRVISSIEQKTDTSDKKLQLIKDYREKVESELRSICTTVLELLDKYLIANATNPESKVFYLKMKGDYFRYLAEVACGDDRKQTIDNSQGAYQEAFDISKKEMQPTHPIRLGLALNFSVFYYEILNNPELACTLAKTAFDEAIAELDTLNEDSYKDSTLIMQLLRDNLTLWTSDSAGEECDAAEGAEN
notes: 14-3-3 protein theta, endogenous in HEK293T cells; source: endogenous, HEK293T lysate

How the values were obtained:
[1] = molecular target: 14-3-3θ (UniProt P27348); assay: anti-Flag co-IP, 14-3-3θ blot; settings: reference: wild type; sites S325
[2] = molecular target: T1, Flag-tagged retinoic acid induced 16 (RAI16), full length (UniProt Q86V87 1-743); assay: co-IP; Flag-tagged RAI16 or its mutants expressed in HEK293T cells, alone or with Ha-tagged PKA-RIIα; anti-Flag immunoprecipitation, endogenous 14-3-3θ detected with anti-14-3-3θ antibody; cells untreated, treated with forskolin or with forskolin + PKImyr; settings: partners not purified
T1 construct: 743 residues by the printed fragment limits; also called Flag-RAI16; Fam160B2; source: HEK293T, transfected (pcDNA3.1), in lysate
T1 sequence (Q86V87 whole entry, the tested form may be a part): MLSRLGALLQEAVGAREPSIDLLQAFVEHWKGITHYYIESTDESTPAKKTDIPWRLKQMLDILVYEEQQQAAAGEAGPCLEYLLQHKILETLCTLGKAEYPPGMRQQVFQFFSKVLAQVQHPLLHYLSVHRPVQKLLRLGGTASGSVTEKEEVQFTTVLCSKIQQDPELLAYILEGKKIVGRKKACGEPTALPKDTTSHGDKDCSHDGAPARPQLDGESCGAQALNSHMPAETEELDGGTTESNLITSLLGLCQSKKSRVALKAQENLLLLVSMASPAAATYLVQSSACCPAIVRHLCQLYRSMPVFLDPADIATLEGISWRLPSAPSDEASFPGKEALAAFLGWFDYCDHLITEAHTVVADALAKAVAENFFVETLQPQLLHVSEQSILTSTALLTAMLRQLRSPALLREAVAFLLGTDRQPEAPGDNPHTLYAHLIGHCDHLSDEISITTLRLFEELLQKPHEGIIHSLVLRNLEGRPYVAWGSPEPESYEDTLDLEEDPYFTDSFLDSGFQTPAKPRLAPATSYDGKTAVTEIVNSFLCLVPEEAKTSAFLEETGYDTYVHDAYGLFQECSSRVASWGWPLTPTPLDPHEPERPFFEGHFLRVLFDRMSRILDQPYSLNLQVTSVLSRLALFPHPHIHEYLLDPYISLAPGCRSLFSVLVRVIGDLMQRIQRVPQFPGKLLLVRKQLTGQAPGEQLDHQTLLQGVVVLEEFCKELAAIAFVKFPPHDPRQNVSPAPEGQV

Molecule | binding against the reference [1] | fold change of co-precipitated 14-3-3θ with forskolin against untreated cells [2]
RAI16 (retinoic acid induced 16) (from UniProt Q86V87) S325A | lost | –
B1 | – | 3.25 fold
